From patent publication US7208301B2, “Method for producing 6-0-α-D-glucopyranosyl-D-sorbitol” (Südzucker Aktiengesellschaft Mannheim/Ochsenfurt, priority 1999, dated 2007)

Assay: Storage stability of purified SDH
Assay type: physicochemical
Method: In another preferred embodiment the temperature of the aqueous reaction solution is 20° C. to 40° C., especially 25° C., in the enzymatic conversion. At temperatures of 25° C. the purified SDH has stability of about a week. Thus, temperatures in this range are well-suited for conducting long-term enzyme-catalyzed processes.
The purified SDH can be stored for about 8 months at −30° C. and the SDH is stable for about 30 days at +4° C.

B1: SDH: sorbitol dehydrogenase of Gluconobacter suboxidans DSM 2003, 262 amino acids (SEQ ID No. 1), purified per Example 1 (protein)
chain: MSKKFNGKVCLVTGAGGNIGLATALRLAEEGTAIALLDMNREALEKAEASVREKGVEARSYVCDVTSEEAVIGTVDSVVRDFGKIDFLFNNAGYQGAFAPVQDYPSDDFARVLTINVTGAFHVLKAVSRQMITQNYGRIVNTASMAGVKGPPNMAAYGASKGAIIALTETAALDLAPYNIRVNAISPGYMGPGFMWERQVELQAKVGSQYFSTDPKVVAQQMIGSVPMRRYGDINEIPGVVAFLLGDDSSFMTGVNLPIAGG
modifications: Gluconobacter suboxydans
At 25° C.
  stability of purified SDH: about a week
At +4° C.
  stability of SDH: about 30 days
At −30° C.
  storage time of purified SDH: about 8 months
